Patent US20060263802A1 (CRUCELL HOLLAND B V, published 2006)

What was measured:
Test in all cases: PEPSCAN ELISA, looped peptide, antibody 10 µg/ml
[1] = target: looped/cyclic peptide … (rabies virus strain ERA)
[2] = target: looped/cyclic peptide … (rabies virus strain ERA); remark: listed apart in the source
[3] = target: looped/cyclic peptide … (rabies virus strain ERA); remark: listed apart in the source
[4] = target: looped/cyclic peptide … (rabies virus strain ERA); remark: listed apart in the source
[5] = target: looped/cyclic peptide … (rabies virus strain ERA); remark: listed apart in the source
[6] = target: looped/cyclic peptide … (rabies virus strain ERA); remark: listed apart in the source
[7] = target: looped/cyclic peptide … (rabies virus strain ERA); remark: listed apart in the source
[8] = target: looped/cyclic peptide … (rabies virus strain ERA); remark: listed apart in the source
[9] = target: looped/cyclic peptide … (rabies virus strain ERA); remark: listed apart in the source
[10] = target: looped/cyclic peptide … (rabies virus strain ERA); remark: listed apart in the source
[11] = target: looped/cyclic peptide … (rabies virus strain ERA); remark: listed apart in the source
[12] = target: looped/cyclic peptide … (rabies virus strain ERA); remark: listed apart in the source
[13] = target: looped/cyclic peptide … (rabies virus strain ERA); remark: listed apart in the source
[14] = target: looped/cyclic peptide … (rabies virus strain ERA); remark: listed apart in the source
[15] = target: looped/cyclic peptide … (rabies virus strain ERA); remark: listed apart in the source
[16] = target: looped/cyclic peptide … (rabies virus strain ERA); remark: listed apart in the source
[17] = target: looped/cyclic peptide … (rabies virus strain ERA); remark: listed apart in the source
[18] = target: looped/cyclic peptide … (rabies virus strain ERA); remark: listed apart in the source
[19] = target: looped/cyclic peptide … (rabies virus strain ERA); remark: listed apart in the source
[20] = target: looped/cyclic peptide … (rabies virus strain ERA); remark: listed apart in the source
[21] = target: looped/cyclic peptide … (rabies virus strain ERA); remark: listed apart in the source
[22] = target: looped/cyclic peptide … (rabies virus strain ERA); remark: listed apart in the source
[23] = target: looped/cyclic peptide … (rabies virus strain ERA); remark: listed apart in the source
[24] = target: looped/cyclic peptide … (rabies virus strain ERA); remark: listed apart in the source
[25] = target: looped/cyclic peptide … (rabies virus strain ERA); remark: listed apart in the source
[26] = target: looped/cyclic peptide … (rabies virus strain ERA); remark: listed apart in the source
[27] = target: looped/cyclic peptide … (rabies virus strain ERA); remark: listed apart in the source
[28] = target: looped/cyclic peptide […] (rabies virus strain ERA)
[29] = target: looped/cyclic peptide … (rabies virus strain ERA); remark: listed apart in the source
[30] = target: looped/cyclic peptide … (rabies virus strain ERA); remark: listed apart in the source
[31] = target: looped/cyclic peptide … (rabies virus strain ERA); remark: listed apart in the source
[32] = target: looped/cyclic peptide … (rabies virus strain ERA); remark: listed apart in the source
[33] = target: looped/cyclic peptide … (rabies virus strain ERA); remark: listed apart in the source
[34] = target: looped/cyclic peptide … (rabies virus strain ERA); remark: listed apart in the source
[35] = target: looped/cyclic peptide … (rabies virus strain ERA); remark: listed apart in the source
[36] = target: looped/cyclic peptide … (rabies virus strain ERA); remark: listed apart in the source
[37] = target: looped/cyclic peptide … (rabies virus strain ERA); remark: listed apart in the source
[38] = target: looped/cyclic peptide … (rabies virus strain ERA); remark: listed apart in the source
[39] = target: looped/cyclic peptide … (rabies virus strain ERA); remark: listed apart in the source
[40] = target: looped/cyclic peptide … (rabies virus strain ERA); remark: listed apart in the source
[41] = target: looped/cyclic peptide … (rabies virus strain ERA); remark: listed apart in the source
[42] = target: looped/cyclic peptide … (rabies virus strain ERA); remark: listed apart in the source
[43] = target: looped/cyclic peptide … (rabies virus strain ERA); remark: listed apart in the source
[44] = target: looped/cyclic peptide … (rabies virus strain ERA); remark: listed apart in the source
[45] = target: looped/cyclic peptide … (rabies virus strain ERA); remark: listed apart in the source
[46] = target: looped/cyclic peptide … (rabies virus strain ERA); remark: listed apart in the source
[47] = target: looped/cyclic peptide … (rabies virus strain ERA); remark: listed apart in the source
[48] = target: looped/cyclic peptide … (rabies virus strain ERA); remark: listed apart in the source
[49] = target: looped/cyclic peptide … (rabies virus strain ERA); remark: listed apart in the source
[50] = target: looped/cyclic peptide … (rabies virus strain ERA); remark: listed apart in the source
[51] = target: looped/cyclic peptide … (rabies virus strain ERA); remark: listed apart in the source
[52] = target: looped/cyclic peptide … (rabies virus strain ERA); remark: listed apart in the source
[53] = target: looped/cyclic peptide … (rabies virus strain ERA); remark: listed apart in the source
[54] = target: looped/cyclic peptide … (rabies virus strain ERA); remark: listed apart in the source
[55] = target: looped/cyclic peptide … (rabies virus strain ERA); remark: listed apart in the source
[56] = target: looped/cyclic peptide … (rabies virus strain ERA); remark: listed apart in the source
[57] = target: looped/cyclic peptide … (rabies virus strain ERA); remark: listed apart in the source
[58] = target: looped/cyclic peptide … (rabies virus strain ERA); remark: listed apart in the source
[59] = target: looped/cyclic peptide … (rabies virus strain ERA); remark: listed apart in the source
[60] = target: looped/cyclic peptide … (rabies virus strain ERA); remark: listed apart in the source
[61] = target: looped/cyclic peptide … (rabies virus strain ERA); remark: listed apart in the source
[62] = target: looped/cyclic peptide … (rabies virus strain ERA); remark: listed apart in the source
[63] = target: looped/cyclic peptide … (rabies virus strain ERA); remark: listed apart in the source
[64] = target: looped/cyclic peptide … (rabies virus strain ERA); remark: listed apart in the source
[65] = target: looped/cyclic peptide … (rabies virus strain ERA); remark: listed apart in the source
[66] = target: looped/cyclic peptide … (rabies virus strain ERA); remark: listed apart in the source
[67] = target: looped/cyclic peptide … (rabies virus strain ERA); remark: listed apart in the source
[68] = target: looped/cyclic peptide … (rabies virus strain ERA); remark: listed apart in the source
[69] = target: looped/cyclic peptide … (rabies virus strain ERA); remark: listed apart in the source
[70] = target: looped/cyclic peptide … (rabies virus strain ERA); remark: listed apart in the source
[71] = target: looped/cyclic peptide … (rabies virus strain ERA); remark: listed apart in the source
[72] = target: looped/cyclic peptide … (rabies virus strain ERA); remark: listed apart in the source
[73] = target: looped/cyclic peptide … (rabies virus strain ERA); remark: listed apart in the source
[74] = target: looped/cyclic peptide … (rabies virus strain ERA); remark: listed apart in the source
[75] = target: looped/cyclic peptide … (rabies virus strain ERA); remark: listed apart in the source

B1: human monoclonal antibody CRJB (antibody, V domains shown)
VH: QITLKETGPTLVKPTQTLTLTCTFSGFSLSTSGVGVGWIRQPPGKALEWVTLIYWDDDKRYSPSLENRVTIRKDTSKNQVALTMTNMDPLDTGTYYCAHRQHISSFPWFDSWGQGTLVTVSS
VL: SYVLTQPPSVSVAPGKTARINCGGNNIEYRSVHWYQQKSGQAPVAVIYDNSDRPSGIPERFSGSKSGNTATLTISRVEAGDEADYYCQVWDISSDVVFGGGTKLTVLG
[1]
  OD value: 57 OD
[2]
  OD value: 65 OD
[3]
  OD value: 69 OD
[4]
  OD value: 92 OD
[5]
  OD value: 68 OD
[6]
  OD value: 111 OD
[7]
  OD value: 73 OD
[8]
  OD value: 69 OD
[9]
  OD value: 55 OD
[10]
  OD value: 72 OD
[11]
  OD value: 74 OD
[12]
  OD value: 93 OD
[13]
  OD value: 82 OD
[14]
  OD value: 93 OD
[15]
  OD value: 111 OD
[16]
  OD value: 85 OD
[17]
  OD value: 54 OD
[18]
  OD value: 72 OD
[19]
  OD value: 33 OD
[20]
  OD value: 60 OD
[21]
  OD value: 79 OD
[22]
  OD value: 92 OD
[23]
  OD value: 72 OD
[24]
  OD value: 77 OD
[25]
  OD value: 77 OD
[26]
  OD value: 59 OD
[27]
  OD value: 90 OD
[28]
  OD value: 138 OD
[29]
  OD value: 70 OD
[30]
  OD value: 73 OD
[31]
  OD value: 88 OD
[32]
  OD value: 86 OD
[33]
  OD value: 70 OD
[34]
  OD value: 100 OD
[35]
  OD value: 60 OD
[36]
  OD value: 90 OD
[37]
  OD value: 84 OD
[38]
  OD value: 118 OD
[39]
  OD value: 79 OD
[40]
  OD value: 62 OD
[41]
  OD value: 75 OD
[42]
  OD value: 70 OD
[43]
  OD value: 68 OD
[44]
  OD value: 77 OD
[45]
  OD value: 102 OD
[46]
  OD value: 64 OD
[47]
  OD value: 71 OD
[48]
  OD value: 79 OD
[49]
  OD value: 65 OD
[50]
  OD value: 82 OD
[51]
  OD value: 74 OD
[52]
  OD value: 72 OD
[53]
  OD value: 68 OD
[54]
  OD value: 83 OD
[55]
  OD value: 83 OD
[56]
  OD value: 50 OD
[57]
  OD value: 78 OD
[58]
  OD value: 85 OD
[59]
  OD value: 86 OD
[60]
  OD value: 49 OD
[61]
  OD value: 71 OD
[62]
  OD value: 92 OD
[63]
  OD value: 75 OD
[64]
  OD value: 68 OD
[65]
  OD value: 83 OD
[66]
  OD value: 72 OD
[67]
  OD value: 72 OD
[68]
  OD value: 90 OD
[69]
  OD value: 64 OD
[70]
  OD value: 89 OD
[71]
  OD value: 58 OD
[72]
  OD value: 91 OD
[73]
  OD value: 55 OD
[74]
  OD value: 96 OD
[75]
  OD value: 71 OD
